Experimental data published in EP2975059A1.

Target: Human PCSK9 form a' (human)
Experiment: SPR ProteOn XPR36, antibody captured on anti-human IgG, PCSK9 variant as analyte, 25 C, 1:1 model

Substance Evolocumab (antibody) has a Kd of 0.185 nM, a koff of 2.29e-05 s⁻¹ and a kon of 124000 M⁻¹ s⁻¹.
